In publication PMC11424477 (2024):

Target: spike (trimeric, Wuhan) (SARS-CoV-2, UniProt P0DTC2)

B1: fibrin (protein)
chain 1: ADSGEGDFLAEGGGVR
chain 2: QGVNDNEEGFFSAR
chain 3: YVATRDNCCILDERFGSYCPTTCGIADFLSTYQTKVDKDLQSLEDILHQVENKTSEVKQLIKAIQLTYNPDESSKPNMIDAATLKSRKMLEEIMKYEASILTHDSSIRYLQEIYNSNNQKIVNLKEKVAQLEAQCQEPCKDTVQIHDITGKDCQDIANKGAKQSGLYFIKPLKANQQFLVYCEIDGSGNGWTVFQKRLDGSVDFKKNWIQYKEGFGHLSPTGTTEFWLGNEKIHLISTQSAIPYALRVELEDWNGRTSTADYAMFKVGPEADKYRLTYAYFAGGDAGDAFDGFDFGDDPSDKFFTSHNGMQFSTWDNDNDKFEGNCAEQDGSGWWMNKCHAGHLNGVYYQGGTYSKASTPNGYDNGIIWATWKTRWYSMKKTTMKIIPFNRLTIGEGQQHHLGGAKQVRPEHPAETEYDSLYPEDDL
**Q.** For B1, which Kd is on record?
**A.** 390 nM
